The values below come from paper PMC10786891, “Massively parallel profiling of RNA-targeting CRISPR-Cas13d”.

B1: target 1 insA 3' of 22,insG 3' of 11 (mixed)
RNA 1: CACCCGUGCAAAAAUGCAGGGGUCUAAAACUGAGCGGAUAACCUCUCUAUGG
RNA 2: GGGAAUGGAUCCACAUCUACGAAUUCGUACACAUAGAGAGGUGUAUCCGCUCACCGAGAUCGGAAGAGCACACGU
B2: target 1 insU 3' of 13,insG 3' of 1 (mixed)
RNA 1: B1 RNA 1
RNA 2: GGGAAUGGAUCCACAUCUACGAAUUCGUACCAUAGAGAGUGUUAUCCGCUCAGCCGAGAUCGGAAGAGCACACGU
B3: target 1 insU 3' of 13,insA 3' of 2 (mixed)
RNA 1: B1 RNA 1
RNA 2: B2 RNA 2 with G53A
B4: target 1 U8G,C21A (mixed)
RNA 1: B1 RNA 1
RNA 2: GGGAAUGGAUCCACAUCUACGAAUUCGUACAAUAGAGAGGUUAGCCGCUCACCGAGAUCGGAAGAGCACACGU
B5: target 1 insC 3' of 13,insG 3' of 7 (mixed)
RNA 1: B1 RNA 1
RNA 2: B2 RNA 2 with U40C, C47G, G48C, C49G, U50C, C51U, A52C, G53A
B6: target 1 insC 3' of 10,insG 3' of 4 (mixed)
RNA 1: B1 RNA 1
RNA 2: B2 RNA 2 with U40G, G41U, U43C, U50G, C51U, A52C, G53A
B7: target 1 insA 3' of 19,insG 3' of 9 (mixed)
RNA 1: B1 RNA 1
RNA 2: B1 RNA 2 with A31C, C32A, A33U, U34A, G43U, U44A, A45G
B8: target 1 insC 3' of 11,insA 3' of 10 (mixed)
RNA 1: B1 RNA 1
RNA 2: GGGAAUGGAUCCACAUCUACGAAUUCGUACCAUAGAGAGGUCUAAUCCGCUCACCGAGAUCGGAAGAGCACACGU
B9: target 1 insA 3' of 15,insU 3' of 13 (mixed)
RNA 1: B1 RNA 1
RNA 2: B8 RNA 2 with G39A, C42G, A44U
B10: target 1 insU 3' of 15,insU 3' of 15 (mixed)
RNA 1: B1 RNA 1
RNA 2: B8 RNA 2 with A38U, G39U, G40A, U41G, C42G, A44U
B11: target 1 C2A,U11A (mixed)
RNA 1: B1 RNA 1
RNA 2: B4 RNA 2 with A31C, U41A, G44U, C50A
B12: target 1 U11A,C21A (mixed)
RNA 1: B1 RNA 1
RNA 2: B4 RNA 2 with U41A, G44U
B13: target 1 U11C,C22U (mixed)
RNA 1: B1 RNA 1
RNA 2: B4 RNA 2 with C30U, A31C, U41C, G44U
B14: target 1 insA 3' of 17,insU 3' of 16 (mixed)
RNA 1: B1 RNA 1
RNA 2: B8 RNA 2 with G37A, A38U, G40A, U41G, C42G, A44U
B15: target 1 insA 3' of 10,insU 3' of 9 (mixed)
RNA 1: B1 RNA 1
RNA 2: B8 RNA 2 with C42U, U43A, A45U
B16: target 1 insC 3' of 20,insG 3' of 7 (mixed)
RNA 1: B1 RNA 1
RNA 2: B1 RNA 2 with A31C, C32A, A33C, G43U, U44A, A45U, U46C, C47G
B17: target 1 G15U,C22A (mixed)
RNA 1: B1 RNA 1
RNA 2: B4 RNA 2 with C30A, A31C, G37U, G44U
B18: target 1 U8G,A16G (mixed)
RNA 1: B1 RNA 1
RNA 2: B4 RNA 2 with A31C, A36G
B19: target 1 A16C,U19C (mixed)
RNA 1: B1 RNA 1
RNA 2: B4 RNA 2 with A31C, U33C, A36C, G44U
B20: target 1 insA 3' of 21,insA 3' of 13 (mixed)
RNA 1: B1 RNA 1
RNA 2: B1 RNA 2 with A31C, C32A, G41A, U42G, G43U
B21: target 1 insA 3' of 15,insA 3' of 7 (mixed)
RNA 1: B1 RNA 1
RNA 2: B8 RNA 2 with G39A, U41G, C42U, A45U, U46C, C47A
B22: target 1 insU 3' of 13,insC 3' of 1 (mixed)
RNA 1: B1 RNA 1
RNA 2: B2 RNA 2 with G53C
B23: target 1 insC 3' of 15,insA 3' of 8 (mixed)
RNA 1: B1 RNA 1
RNA 2: B8 RNA 2 with A38C, G39A, U41G, C42U, A45U, U46A
B24: target 1 insU 3' of 21,insC 3' of 11 (mixed)
RNA 1: B1 RNA 1
RNA 2: B1 RNA 2 with A31C, C32U, G43C
B25: target 1 insA 3' of 21,insG 3' of 6 (mixed)
RNA 1: B1 RNA 1
RNA 2: B1 RNA 2 with A31C, C32A, G43U, U44A, A45U, U46C, C48G
B26: target 1 insC 3' of 18,insC 3' of 9 (mixed)
RNA 1: B1 RNA 1
RNA 2: B1 RNA 2 with A31C, C32A, A33U, U34A, A35C, G43U, U44A, A45C
B27: target 1 insA 3' of 22,insG 3' of 10 (mixed)
RNA 1: B1 RNA 1
RNA 2: B1 RNA 2 with G43U, U44G

Substitutions are numbered along the chain they refer to. Numbers in names are those of the source.

For this data set, the target named is T1, EsCas13d, nuclease-dead (Eubacterium siraeum, UniProt B0MS50, R295A;H300A;R849A;H854A).
T1 sequence: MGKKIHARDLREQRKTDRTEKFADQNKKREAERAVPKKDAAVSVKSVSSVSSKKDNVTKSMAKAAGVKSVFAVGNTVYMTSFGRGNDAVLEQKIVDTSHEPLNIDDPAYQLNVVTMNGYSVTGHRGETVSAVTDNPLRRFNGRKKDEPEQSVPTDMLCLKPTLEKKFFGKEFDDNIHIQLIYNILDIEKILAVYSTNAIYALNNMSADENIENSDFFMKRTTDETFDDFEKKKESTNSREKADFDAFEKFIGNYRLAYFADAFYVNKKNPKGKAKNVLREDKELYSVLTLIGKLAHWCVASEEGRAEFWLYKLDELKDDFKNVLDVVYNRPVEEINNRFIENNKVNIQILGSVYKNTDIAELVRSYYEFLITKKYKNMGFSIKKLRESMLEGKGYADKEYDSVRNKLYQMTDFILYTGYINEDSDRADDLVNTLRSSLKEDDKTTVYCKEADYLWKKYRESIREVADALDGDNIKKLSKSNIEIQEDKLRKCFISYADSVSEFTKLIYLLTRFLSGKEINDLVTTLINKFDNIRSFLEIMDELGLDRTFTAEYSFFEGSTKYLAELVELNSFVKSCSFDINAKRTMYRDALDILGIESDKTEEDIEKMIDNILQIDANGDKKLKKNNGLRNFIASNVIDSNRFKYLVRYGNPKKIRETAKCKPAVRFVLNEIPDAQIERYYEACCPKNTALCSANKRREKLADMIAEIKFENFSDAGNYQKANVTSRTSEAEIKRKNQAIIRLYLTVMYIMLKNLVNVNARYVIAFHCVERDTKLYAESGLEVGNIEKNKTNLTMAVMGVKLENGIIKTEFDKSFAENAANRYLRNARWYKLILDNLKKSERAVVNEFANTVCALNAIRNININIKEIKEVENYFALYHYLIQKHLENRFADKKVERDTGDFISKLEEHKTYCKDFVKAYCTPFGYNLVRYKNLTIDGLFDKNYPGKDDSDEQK
In words: crRNA (strand 1, pre-loaded); Mg2+; 40 mM Tris-HCl pH 7.5, 150 mM NaCl, 6 mM MgCl2, 1 mM DTT, 0.1% Tween-20, 0.2 mg/ml BSA; 25 C; 10 min per concentration, then washed. Particulars: tags: His6-TwinStrep-SUMO cleaved; N-terminal SNAP kept (SNAP-Surface 488); label: 3' end held by stalled T7 RNA polymerase.
In general, Kd refers to a measure of binding affinity in units of concentration. A higher Kd goes with weaker binding. The molecule B1 showed a Kd of 42 ± 8 nM.
To B2 belongs 11.7 ± 1.7 nM; to B3, 16.2 ± 1.8 nM.
B4 returned a Kd of 54 ± 11 nM.
Next, B5: 16.1 ± 1 nM.
To B6 belongs 8.6 ± 0.4 nM; to B7, 37 ± 4 nM.
The molecule B8 came in with a Kd of 30 ± 4 nM.
The molecule B9 displayed a Kd of 19 ± 4 nM.
Next, B10: 17.6 ± 1.2 nM; B11: 21.6 ± 1.4 nM.
B12 had a Kd of 64 ± 24 nM.
In turn, B13 had a Kd of 21.2 ± 1.7 nM.
As for B14, the equilibrium dissociation constant (Kd) turned out to be 38 ± 8 nM.
Next, B15: 13.9 ± 0.5 nM; B16: 8.8 ± 0.4 nM; B17: 40 ± 6 nM.
As for B18, the Kd was found to be 39.4 ± 3.5 nM.
To B19 belongs 94 ± 21 nM; to B20, 11.7 ± 0.7 nM; to B21, 4.65 ± 0.17 nM.
To B22 belongs 21 ± 4 nM.
Next, B23: 20.1 ± 2.1 nM; B24: 81 ± 21 nM.
Molecule B25 yielded a Kd of 22.1 ± 2.3 nM.
The molecule B26 gave a Kd of 58 ± 8 nM.
To B27 belongs 55 ± 13 nM.
